Laboratory results as given in US20180355043A1.

Assays:
Experiment in all cases: MSD ECL; antigen coated; protocol of Example 3
[1] = target: DR4G112: Human HLA-DQA1*01:02/DQB1*06:02 ECD with PLP peptide PLP_178-186 (human)
[2] = target: DR4G145 (HLA DQB2:01, peptide CLIP) (human)
[3] = target: DR4G99: Human HLA-DRA1*01:02/DRB1*01:01 ECD with collagen peptide CII_1236-1249 (human)
[4] = target: DR4G96: Human HLA-DRA1*01:02/DRB1*01:01 ECD with CLIP peptide (human)
[5] = target: DR4G115 (HLA DPB4:01, peptide LCAP) (human)
Chain of DR4G115 (HLA DPB4:01, peptide LCAP) (human) (P20036 29-222, chain 1 of 2): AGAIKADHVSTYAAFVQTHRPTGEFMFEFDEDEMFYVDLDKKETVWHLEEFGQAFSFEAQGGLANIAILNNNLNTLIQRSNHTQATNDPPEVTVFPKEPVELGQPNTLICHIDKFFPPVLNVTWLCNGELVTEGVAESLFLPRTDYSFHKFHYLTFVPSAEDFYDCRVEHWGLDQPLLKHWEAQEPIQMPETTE
Chain of DR4G115 (HLA DPB4:01, peptide LCAP) (human) (P04440 30-225, chain 2 of 2, further chain): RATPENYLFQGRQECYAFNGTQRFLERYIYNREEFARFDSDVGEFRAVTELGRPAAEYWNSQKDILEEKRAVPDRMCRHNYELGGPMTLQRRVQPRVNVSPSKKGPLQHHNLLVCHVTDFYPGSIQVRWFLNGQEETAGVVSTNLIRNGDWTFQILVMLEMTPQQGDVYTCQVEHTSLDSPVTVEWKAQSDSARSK

[6] = target: DR4G92: Human HLA-DRA1*01:02/DRB1*04:01 ECD with collagen II peptide CII_257-273 (human)
[7] = target: DR4G146 (HLA DQB2:01, peptide CLIP) (human)
[8] = target: DR4G98: Human HLA-DRA1*01:02/DRB1*04:02 ECD with collagen II peptide CII_1236-1249 (human)
[9] = target: DR4G142: Human HLA-DRA1*01:02/DRB1*03:01 ECD_VimentineL70A (human)
[10] = target: DR4G102: Human HLA-DRA1*01:02/DRB1*01:01 ECD with collagen II peptide CII_257-273 (human)
[11] = target: DR4G97: Human HLA-DRA1*01:02/DRB1*15:01 ECD with collagen II peptide CII_1236-1249 (human)
[12] = target: DR4G107 (HLA DPB4:01, peptide CLIP) (human)
[13] = target: DR4G143: Human HLA-DRA1*01:02/DRB1*04:01 ECD_VimentineL70A (human)
[14] = target: DR4G110: Human HLA-DRA1*01:02/DRB1*04:01 ECD with aggrecan peptide N1 (human)
[15] = target: DR4G86: Human HLA-DRA1*01:02/DRB1*04:01 ECD with CLIP peptide (human)
[16] = target: DR4G101: Human HLA-DRA1*01:02/DRB1*04:02 ECD with collagen II peptide CII_257-273 (human)
[17] = target: DR4G117: Human HLA-DRA1*01:02/DRB1*03:01 ECD with Collagen II peptide CII_1236-1249 (human)

Substance: Isotype control (antibody)
- ECL signal [1]: 250 ECL
- ECL signal [2]: 2780 ECL
- ECL signal [3]: 490 ECL
- ECL signal [4]: 781 ECL
- ECL signal [5]: 91 ECL
- ECL signal [6]: 486 ECL
- ECL signal [7]: 1470 ECL
- ECL signal [8]: 613 ECL
- ECL signal [9]: 2220 ECL
- ECL signal [10]: 392 ECL
- ECL signal [11]: 393 ECL
- ECL signal [12]: 153 ECL
- ECL signal [13]: 410 ECL
- ECL signal [14]: 1030 ECL
- ECL signal [15]: 335 ECL
- ECL signal [16]: 1250 ECL
- ECL signal [17]: 603 ECL
